Legend:
[1] = molecular target: Bradyrhizobium japonicum SemiSWEET (Bradyrhizobium japonicum); experiment: not stated; BjSemiSWEET in liposomes (fig. S8B); method not given
[2] = molecular target: Bradyrhizobium japonicum SemiSWEET (Bradyrhizobium japonicum); experiment: not stated; BjSemiSWEET in detergent (fig. S8A); method not given

- stoichiometry N [1]: 2
- stoichiometry N [2]: 2
Substance: Bradyrhizobium japonicum SemiSWEET (natural protein)

— PMC12609076
